Assay results published in patent US20090318350A1, “PAN-HER ANTAGONISTS AND METHODS OF USE” (published 2009).

B1: EGF (purified protein) (ligand)
chain: HHHHHHIEGRNSDSECPLSHDGYCLHDGVCMYIEALDKYACNCWGYIGERCQYRDLKWWELR
B2: Heregulin (purified protein) (ligand)
chain: SHLVKCAEKEKTFCVNGGECFMVKDLSNPSRYLCKCPNEFTGDRCQNYVMASFYKHLGIEFMEAEELY

What was measured:
[1] = target: human epidermal growth factor receptor (EGFR) (human, UniProt P00533); assay: cell-based or functional assay
HER3 receptor = HER3 receptor (human, UniProt P21860); assay: cell-based or functional assay

| Binder | Calculated cell proliferation (EC50; picomolar) [1] [picomolar] | Calculated cell proliferation (EC50; picomolar) (HER3 receptor) [picomolar] |
| --- | --- | --- |
| B1 | 1150 | – |
| B2 | – | 6150 |
